Biological target: GFP-encoding lentiviral particles

For “StrepTactin Superflow column (0.2 mL resin bed, 3 mg binding capacity per mL; IBA Lifesciences GmbH)”, the GFP+ cells (gate over CD8- and CD8+ cells) among T cells five days after transduction with the biotin elution fraction of the column without VBP (-VB), by flow cytometry was 0.069%.
